Measurements: IntAct's records for PubMed 11264384

Target: nef_hv1a2 nef (UniProt P03407)
Sequence (P03407 whole entry): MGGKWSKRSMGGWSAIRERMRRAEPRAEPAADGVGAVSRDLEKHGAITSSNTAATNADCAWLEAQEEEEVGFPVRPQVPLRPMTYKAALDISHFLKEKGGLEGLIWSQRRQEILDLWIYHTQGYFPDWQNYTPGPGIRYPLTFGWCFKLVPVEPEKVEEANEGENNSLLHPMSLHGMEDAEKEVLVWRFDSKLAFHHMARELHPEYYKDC

## T-cell surface glycoprotein CD4 (Homo sapiens) (from UniProt P01730) L438A;L439A
  effect of a mutation on the interaction: disrupting interaction strength
